Measurements reported in patent publication US20200140517A1 (CASE WESTERN RESERVE UNIVERSITY, published 2020).
Values joined by “and” are separate entries in the source; they are usually repeats but may differ in a detail not shown here. Equal entries are not always repeated. Positions of bridges follow the written chain, without caps; N, C: chain ends. No end group written: not given here.

Columns and labels:
[1] = target: T1, A isoform of the insulin receptor (UniProt P06213-2 28-1370, limits assumed); test: receptor binding affinity, method not described; reference: human insulin; data not shown
T1 construct: also called IR-A

[2] = substrate: B isoform of the insulin receptor (UniProt P06213); test: receptor binding affinity, method not described; reference: wild type human insulin

B1: 4SS 81-04 (SCI-2; 57-mer single-chain insulin analogue with fourth disulfide bridge, cystine B4-A10) (ligand)
chain: FVNCHLCGSHLVEALYLVCGERGFFYTDPTEEGPRRGIVEQCCHSCCSLEQLENYCN
modifications: disulfide 4-46; also: three canonical disulfides, pairing not given here
notes: Single polypeptide chain (B domain, 6-residue C domain EEGPRR, A domain), expressed in Pichia pastoris; Cys at B4 and A10 form a fourth disulfide bridge beside the three canonical ones; also called 57mer SCI-2
[1]
  affinity relative to human insulin: 120 percent
[2]
  fold reduction of affinity relative to wild type human insulin: 5 fold and 10 fold
